# Assay results reported in publication PMC6298698.
# Positions count from the first letter of the chain named. Numbers in names are those of the source.
# B1: human BK channel β2 subunit C1S (C84S) (natural protein)
# chain: MFIWTSGRTSSSYRHDEKRNIYQKIRDHDLLDKRKTVTALKAGEDRAILLGLAMMVCSIMMYFLLGITLLRSYMQSVWTEESQSTLLNASITETFNCSFSCGPDCWKLSQYPCLQVYVNLTSSGEKLLLYHTEETIKINQKCSYIPKCGKNFEESMSLVNVVMENFRKYQHFSCYSDPEGNQKSVILTKLYSSNVLFHSLFWPTCMMAGGVAIVAMVKLTQYLSLLCERIQRINR
# B2: human BK channel β2 subunit C7S (C148S) (natural protein)
# chain: B1 chain with S84C, C148S
# B3: human BK channel β2 subunit C2S (C97S) (natural protein)
# chain: B1 chain with S84C, C97S
# B4: human BK channel β2 subunit (KCNMB2), wild type (natural protein)
# chain: B1 chain with S84C
# B5: human BK channel β2 subunit C5S (C113S) (natural protein)
# chain: B1 chain with S84C, C113S
# B6: human BK channel β2 subunit C4S (C105S) (natural protein)
# chain: B1 chain with S84C, C105S
# B7: human BK channel β2 subunit C3S (C101S) (natural protein)
# chain: B1 chain with S84C, C101S
# B8: human BK channel β2 subunit C8S (C174S) (natural protein)
# chain: B1 chain with S84C, C174S
# B9: human BK channel β2 subunit C6S (C142S) (natural protein)
# chain: B1 chain with S84C, C142S
# Target: mouse Slo1 (mSlo1) BK channel α subunit, mbr5 splice variant (mouse)
row,"unbinding probability (q), from the non-inactivating offset of currents, inside-out patches of HEK293 cells, 10 μM Ca2+",Binder
1,0.48,B1
2,0.08,B2
3,0.09,B3
4,0.07,B4
5,0.66,B5
6,0.08,B6
7,0.09,B7
8,0.38,B8
9,0.41,B9

# Target: mouse Slo1 (mSlo1) BK channel α subunit, mbr5 splice variant (mouse)
# Remark: another data set of the same source
"experimental rectification ratio Rβ2* of mSlo1+β2(C1S), not corrected for unbinding","experimental rectification ratio Rβ2* of mSlo1+β2(C2S), not corrected for unbinding",Binder
1.22,–,B1
–,1.43,B3
